The labels stand for the following.
B1: humanized anti-human PD-L1 monoclonal antibody VLS9-VHS1 (antibody, human IgG1, kappa, V domains shown)
VH: QVQLVQSGAEVKKPGSSVKVSCTASGFNIEDTYIHWVRQAPGQGLEWMGRIDPANGNTKYDPKFQGRVTITADESTSTAYMELSSLRSEDTAVYYCGRGLGAWFAYWGQGTLVTVSS
VL: DIQMTQSPSSLSASVGDRVTITCKASQDVHTAVAWYQQKPGKAPKLLIYSASNRYTGVPSRFSGSGSGTDFTFTISSLQPEDIATYYCQQHYITPLTFGQGTKLEIKR
B2: humanized anti-human PD-L1 monoclonal antibody VLS10-VHS1 (antibody, human IgG1, kappa, V domains shown)
VH: QVQLVQSGAEVKKPGSSVKVSCTASGFNIEDTYIHWVRQAPGQGLEWMGRIDPANGNTKYDPKFQGRVTITADESTSTAYMELSSLRSEDTAVYYCGRGLGAWFAYWGQGTLVTVSS
VL: DIQMTQSPSSLSASVGDRVTITCKASQDVHTAVAWIHQKPGKAPKLLIYSASNRYTGVPSRFSGSGSGTDFTFTISSLQPEDIATYYCQQHYITPLTFGQGTKLEIKR
B3: humanized anti-human PD-L1 monoclonal antibody VLS9-VHS6 (antibody, human IgG1, kappa, V domains shown)
VH: QVQLVQSGAEVKKPGSSVKVSCTASGFNIEDTYIHWVRQAPGQGLEWMGRIDPANGNTKYDPKFQGRATITADESTNTAYMELSSLRSEDTAVYYCGRGLGAWFAYWGQGTLVTVSS
VL: DIQMTQSPSSLSASVGDRVTITCKASQDVHTAVAWYQQKPGKAPKLLIYSASNRYTGVPSRFSGSGSGTDFTFTISSLQPEDIATYYCQQHYITPLTFGQGTKLEIKR
B4: humanized anti-human PD-L1 monoclonal antibody VLS10-VHS6 (antibody, human IgG1, kappa, V domains shown)
VH: QVQLVQSGAEVKKPGSSVKVSCTASGFNIEDTYIHWVRQAPGQGLEWMGRIDPANGNTKYDPKFQGRATITADESTNTAYMELSSLRSEDTAVYYCGRGLGAWFAYWGQGTLVTVSS
VL: DIQMTQSPSSLSASVGDRVTITCKASQDVHTAVAWIHQKPGKAPKLLIYSASNRYTGVPSRFSGSGSGTDFTFTISSLQPEDIATYYCQQHYITPLTFGQGTKLEIKR
B5: humanized anti-human PD-L1 monoclonal antibody VLS10-VHS2 (antibody, human IgG1, kappa, V domains shown)
VH: QVQLVQSGAEVKKPGSSVKVSCTASGFNIEDTYIHWVRQAPGQGLEWMGRIDPANGNTKYDPKFQGRATITADESTSTAYMELSSLRSEDTAVYYCGRGLGAWFAYWGQGTLVTVSS
VL: DIQMTQSPSSLSASVGDRVTITCKASQDVHTAVAWIHQKPGKAPKLLIYSASNRYTGVPSRFSGSGSGTDFTFTISSLQPEDIATYYCQQHYITPLTFGQGTKLEIKR
B6: humanized anti-human PD-L1 monoclonal antibody VLS10-VHS8 (antibody, human IgG1, kappa, V domains shown)
VH: QVQLVQSGAEVKKPGSSVKVSCTASGFNIEDTYIHWVRQAPGQGLEWMGRIDPANGNTKYDPKFQGRATITADTSTNTAYMELSSLRSEDTAVYYCGRGLGAWFAYWGQGTLVTVSS
VL: DIQMTQSPSSLSASVGDRVTITCKASQDVHTAVAWIHQKPGKAPKLLIYSASNRYTGVPSRFSGSGSGTDFTFTISSLQPEDIATYYCQQHYITPLTFGQGTKLEIKR
B7: humanized anti-human PD-L1 monoclonal antibody VLS15-VHS14 (antibody, human IgG1, kappa, V domains shown)
VH: EVQLVQSGAEVKKPGSSVKVSCKASGFNIEDTYIHWVRQAPGQGLEWIGRIDPANGNTKYDPKFQGRATITADTSTNTAYMELSSLRSEDTAVYYCGRGLGAWFAYWGQGTLVTVSS
VL: DIQMTQSPSSLSASVGDRVTITCKASQDVHTAVAWIQQKPGKSPKLLIYSASNRYTGVPSRFSGSGSGTDFTFTISSLQPEDIATYYCQQHYITPLTFGQGTKLEIKR
B8: humanized anti-human PD-L1 monoclonal antibody VLS10-VHS5 (antibody, human IgG1, kappa, V domains shown)
VH: QVQLVQSGAEVKKPGSSVKVSCTASGFNIEDTYIHWVRQAPGQGLEWMGRIDPANGNTKYDPKFQGRATITADTSTSTAYMELSSLRSEDTAVYYCGRGLGAWFAYWGQGTLVTVSS
VL: DIQMTQSPSSLSASVGDRVTITCKASQDVHTAVAWIHQKPGKAPKLLIYSASNRYTGVPSRFSGSGSGTDFTFTISSLQPEDIATYYCQQHYITPLTFGQGTKLEIKR
B9: humanized anti-human PD-L1 monoclonal antibody VLS9-VHS3 (antibody, human IgG1, kappa, V domains shown)
VH: QVQLVQSGAEVKKPGSSVKVSCTASGFNIEDTYIHWVRQAPGQGLEWMGRIDPANGNTKYDPKFQGRVTITADTSTSTAYMELSSLRSEDTAVYYCGRGLGAWFAYWGQGTLVTVSS
VL: DIQMTQSPSSLSASVGDRVTITCKASQDVHTAVAWYQQKPGKAPKLLIYSASNRYTGVPSRFSGSGSGTDFTFTISSLQPEDIATYYCQQHYITPLTFGQGTKLEIKR
B10: humanized anti-human PD-L1 monoclonal antibody VLS9-VHS4 (antibody, human IgG1, kappa, V domains shown)
VH: QVQLVQSGAEVKKPGSSVKVSCTASGFNIEDTYIHWVRQAPGQGLEWMGRIDPANGNTKYDPKFQGRVTITADESTNTAYMELSSLRSEDTAVYYCGRGLGAWFAYWGQGTLVTVSS
VL: DIQMTQSPSSLSASVGDRVTITCKASQDVHTAVAWYQQKPGKAPKLLIYSASNRYTGVPSRFSGSGSGTDFTFTISSLQPEDIATYYCQQHYITPLTFGQGTKLEIKR
B11: humanized anti-human PD-L1 monoclonal antibody VLS10-VHS4 (antibody, human IgG1, kappa, V domains shown)
VH: QVQLVQSGAEVKKPGSSVKVSCTASGFNIEDTYIHWVRQAPGQGLEWMGRIDPANGNTKYDPKFQGRVTITADESTNTAYMELSSLRSEDTAVYYCGRGLGAWFAYWGQGTLVTVSS
VL: DIQMTQSPSSLSASVGDRVTITCKASQDVHTAVAWIHQKPGKAPKLLIYSASNRYTGVPSRFSGSGSGTDFTFTISSLQPEDIATYYCQQHYITPLTFGQGTKLEIKR
B12: humanized anti-human PD-L1 monoclonal antibody VLS15-VHS13 (antibody, human IgG1, kappa, V domains shown)
VH: EVQLVQSGAEVKKPGSSVKVSCKASGFNIEDTYIHWVRQAPGQGLEWIGRIDPANGNTKYDPKFQGRATITADESTNTAYMELSSLRSEDTAVYYCGRGLGAWFAYWGQGTLVTVSS
VL: DIQMTQSPSSLSASVGDRVTITCKASQDVHTAVAWIQQKPGKSPKLLIYSASNRYTGVPSRFSGSGSGTDFTFTISSLQPEDIATYYCQQHYITPLTFGQGTKLEIKR
B13: humanized anti-human PD-L1 monoclonal antibody VLS10-VHS3 (antibody, human IgG1, kappa, V domains shown)
VH: QVQLVQSGAEVKKPGSSVKVSCTASGFNIEDTYIHWVRQAPGQGLEWMGRIDPANGNTKYDPKFQGRVTITADTSTSTAYMELSSLRSEDTAVYYCGRGLGAWFAYWGQGTLVTVSS
VL: DIQMTQSPSSLSASVGDRVTITCKASQDVHTAVAWIHQKPGKAPKLLIYSASNRYTGVPSRFSGSGSGTDFTFTISSLQPEDIATYYCQQHYITPLTFGQGTKLEIKR
B14: humanized anti-human PD-L1 monoclonal antibody VLS9-VHS7 (antibody, human IgG1, kappa, V domains shown)
VH: QVQLVQSGAEVKKPGSSVKVSCTASGFNIEDTYIHWVRQAPGQGLEWMGRIDPANGNTKYDPKFQGRVTITADTSTNTAYMELSSLRSEDTAVYYCGRGLGAWFAYWGQGTLVTVSS
VL: DIQMTQSPSSLSASVGDRVTITCKASQDVHTAVAWYQQKPGKAPKLLIYSASNRYTGVPSRFSGSGSGTDFTFTISSLQPEDIATYYCQQHYITPLTFGQGTKLEIKR
B15: humanized anti-human PD-L1 monoclonal antibody VLS9-VHS5 (antibody, human IgG1, kappa, V domains shown)
VH: QVQLVQSGAEVKKPGSSVKVSCTASGFNIEDTYIHWVRQAPGQGLEWMGRIDPANGNTKYDPKFQGRATITADTSTSTAYMELSSLRSEDTAVYYCGRGLGAWFAYWGQGTLVTVSS
VL: DIQMTQSPSSLSASVGDRVTITCKASQDVHTAVAWYQQKPGKAPKLLIYSASNRYTGVPSRFSGSGSGTDFTFTISSLQPEDIATYYCQQHYITPLTFGQGTKLEIKR
B16: humanized anti-human PD-L1 monoclonal antibody VLS9-VHS2 (antibody, human IgG1, kappa, V domains shown)
VH: QVQLVQSGAEVKKPGSSVKVSCTASGFNIEDTYIHWVRQAPGQGLEWMGRIDPANGNTKYDPKFQGRATITADESTSTAYMELSSLRSEDTAVYYCGRGLGAWFAYWGQGTLVTVSS
VL: DIQMTQSPSSLSASVGDRVTITCKASQDVHTAVAWYQQKPGKAPKLLIYSASNRYTGVPSRFSGSGSGTDFTFTISSLQPEDIATYYCQQHYITPLTFGQGTKLEIKR
B17: humanized anti-human PD-L1 monoclonal antibody VLS15-VHS11 (antibody, human IgG1, kappa, V domains shown)
VH: EVQLVQSGAEVKKPGSSVKVSCKASGFNIEDTYIHWVRQAPGQGLEWMGRIDPANGNTKYDPKFQGRVTITADESTNTAYMELSSLRSEDTAVYYCGRGLGAWFAYWGQGTLVTVSS
VL: DIQMTQSPSSLSASVGDRVTITCKASQDVHTAVAWIQQKPGKSPKLLIYSASNRYTGVPSRFSGSGSGTDFTFTISSLQPEDIATYYCQQHYITPLTFGQGTKLEIKR
B18: humanized anti-human PD-L1 monoclonal antibody VLS9-VHS8 (antibody, human IgG1, kappa, V domains shown)
VH: QVQLVQSGAEVKKPGSSVKVSCTASGFNIEDTYIHWVRQAPGQGLEWMGRIDPANGNTKYDPKFQGRATITADTSTNTAYMELSSLRSEDTAVYYCGRGLGAWFAYWGQGTLVTVSS
VL: DIQMTQSPSSLSASVGDRVTITCKASQDVHTAVAWYQQKPGKAPKLLIYSASNRYTGVPSRFSGSGSGTDFTFTISSLQPEDIATYYCQQHYITPLTFGQGTKLEIKR

For this test, the target named is recombinant human PD-L1 (Sino Biological Inc.) (human, UniProt Q9NZQ7 19-239). Nature of the test: affinity determination (dissociation constant), method not stated.
Sequence of recombinant human PD-L1 (Sino Biological Inc.) (Q9NZQ7 19-239 limits assumed): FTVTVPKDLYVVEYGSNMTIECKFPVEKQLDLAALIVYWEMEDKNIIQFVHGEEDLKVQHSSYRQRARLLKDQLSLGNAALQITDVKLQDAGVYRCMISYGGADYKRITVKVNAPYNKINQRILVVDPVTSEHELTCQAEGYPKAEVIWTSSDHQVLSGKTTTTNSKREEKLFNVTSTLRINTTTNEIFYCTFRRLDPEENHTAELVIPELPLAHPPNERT
Broadly, the koff is a measure of how fast the partners let go of each other. B1: the koff came out at 0.00597 s⁻¹.

With B2, the koff was 0.00424 s⁻¹.

As to B3, the koff amounted to 0.00618 s⁻¹.

B4: the koff is 0.00121 s⁻¹.

Turning to B5, the off-rate (koff) was determined as 0.00325 s⁻¹.

As for B6, the koff turned out to be 0.000652 s⁻¹.

For B7, the koff turned out to be 0.000452 s⁻¹.

Turning to B8, the off-rate constant (koff) amounted to 0.000994 s⁻¹.

Regarding B9, the koff was found to be 0.0052 s⁻¹.

In the case of B10, the koff was determined as 0.00544 s⁻¹.

Take B11: the koff was determined as 0.00156 s⁻¹.

In the case of B12, the koff was found to be 0.000763 s⁻¹.

For the molecule B13, the koff was determined as 0.00121 s⁻¹.

For B14, the koff was determined as 0.0058 s⁻¹.

On to B15, for which the koff turned out to be 0.00438 s⁻¹.

With B16, the koff amounted to 0.00599 s⁻¹.

As to B17, the koff amounted to 0.000841 s⁻¹.

As to B18, the koff worked out at 0.00532 s⁻¹.

For the origin of these results see patent US20240301068A1 (BEIJING HANMI PHARMACEUTICAL, published 2024).
